According to article PMC10397247:

Key:
[1] = target: T1, 4H4038-bH; assay: two-hybrid library CCNG1;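 further: natural log of median RNA to DNA barcode read ratio; higher means stronger binding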
T1 chain: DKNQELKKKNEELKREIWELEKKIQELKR

[2] = target: T2, 4H1387-bH; assay: two-hybrid library CCNG1;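 further: natural log of median RNA to DNA barcode read ratio; higher means stronger binding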
T2 chain: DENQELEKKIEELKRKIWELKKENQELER

[3] = target: T3, 4H3961-bH; assay: two-hybrid library CCNG1;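 further: natural log of median RNA to DNA barcode read ratio; higher means stronger binding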
T3 chain: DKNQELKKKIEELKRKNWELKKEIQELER

[4] = target: T4, 4H344-bH; assay: two-hybrid library CCNG1;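 further: natural log of median RNA to DNA barcode read ratio; higher means stronger binding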
T4 chain: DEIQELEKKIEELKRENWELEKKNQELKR

[5] = target: T5, 4H2568-bH; assay: two-hybrid library CCNG1
T5 chain: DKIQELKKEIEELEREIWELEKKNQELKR

[6] = target: T6, 4H470-bH; assay: two-hybrid library CCNG1
T6 chain: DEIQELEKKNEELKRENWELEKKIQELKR

[7] = target: T7, 4H3601-bH; assay: two-hybrid library CCNG1
T7 chain: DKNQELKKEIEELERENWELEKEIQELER

[8] = target: T8, 4H3907-bH; assay: two-hybrid library CCNG1
T8 chain: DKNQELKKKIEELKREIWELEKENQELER

[9] = target: T9, 4H3297-bN; assay: two-hybrid library CCNG1
T9 chain: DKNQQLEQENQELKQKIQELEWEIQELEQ

[10] = target: T10, 4H2745-bH; assay: two-hybrid library CCNG1
T10 chain: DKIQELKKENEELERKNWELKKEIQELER

[11] = target: T11, 4H3592-bH; assay: two-hybrid library CCNG1
T11 chain: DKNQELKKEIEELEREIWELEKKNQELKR

[12] = target: T12, 4H1406-bH; assay: two-hybrid library CCNG1
T12 chain: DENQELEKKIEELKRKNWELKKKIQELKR

[13] = target: T13, 4H1072-bH; assay: two-hybrid library CCNG1
T13 chain: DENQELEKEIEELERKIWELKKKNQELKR

[14] = target: T14, 4H1899-bN; assay: two-hybrid library CCNG1
T14 chain: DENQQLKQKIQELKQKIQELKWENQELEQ

[15] = target: T15, 4H2619-bH; assay: two-hybrid library CCNG1
T15 chain: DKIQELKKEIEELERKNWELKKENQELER

[16] = target: T16, 4H363-bH; assay: two-hybrid library CCNG1
T16 chain: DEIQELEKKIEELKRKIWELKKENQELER

[17] = target: T17, 4H1193-bH; assay: two-hybrid library CCNG1
T17 chain: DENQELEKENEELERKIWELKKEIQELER

[18] = target: T18, O11-bN; assay: two-hybrid library CCNG1
T18 chain: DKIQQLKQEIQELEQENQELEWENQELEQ

[19] = target: T19, O3-bN; assay: two-hybrid library CCNG1
T19 chain: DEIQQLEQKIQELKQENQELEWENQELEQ

[20] = target: T20, O4-bN; assay: two-hybrid library CCNG1
T20 chain: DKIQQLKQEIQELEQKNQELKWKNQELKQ

[21] = target: T21, O6-bN; assay: two-hybrid library CCNG1
T21 chain: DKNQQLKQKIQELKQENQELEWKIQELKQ

[22] = target: T22, O10-bN; assay: two-hybrid library CCNG1; settings: mean of both orientations
T22 chain: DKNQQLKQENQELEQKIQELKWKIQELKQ

[23] = target: T23, O2-bN; assay: two-hybrid library CCNG1
T23 chain: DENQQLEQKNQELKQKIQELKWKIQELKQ

[24] = target: T24, O14-bN; assay: two-hybrid library CCNG1
T24 chain: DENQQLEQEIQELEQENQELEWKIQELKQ

[25] = target: T25, O16-bN; assay: two-hybrid library CCNG1
T25 chain: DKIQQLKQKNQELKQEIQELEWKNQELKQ

[26] = target: T26, O9-bN; assay: two-hybrid library CCNG1; settings: mean of both orientations
T26 chain: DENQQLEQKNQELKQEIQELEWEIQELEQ

[27] = target: T27, O8-bN; assay: two-hybrid library CCNG1
T27 chain: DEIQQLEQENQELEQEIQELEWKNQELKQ

[28] = target: T28, O13-bN; assay: two-hybrid library CCNG1
T28 chain: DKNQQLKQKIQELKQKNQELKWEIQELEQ

[29] = target: T29, O12-bN; assay: two-hybrid library CCNG1
T29 chain: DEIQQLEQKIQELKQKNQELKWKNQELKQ

[30] = target: T30, O7-bN; assay: two-hybrid library CCNG1
T30 chain: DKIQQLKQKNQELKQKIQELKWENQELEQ

[31] = target: T31, O5-bN; assay: two-hybrid library CCNG1
T31 chain: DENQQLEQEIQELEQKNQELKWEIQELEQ

[32] = target: T32, O15-bN; assay: two-hybrid library CCNG1
T32 chain: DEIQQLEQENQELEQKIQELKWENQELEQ

[33] = target: T33, 4H342-bN; assay: two-hybrid library CCNG1
T33 chain: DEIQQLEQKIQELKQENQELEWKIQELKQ

[34] = target: T34, 4H3070-bN; assay: two-hybrid library CCNG1; settings: mean of both orientations
T34 chain: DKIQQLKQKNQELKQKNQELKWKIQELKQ

[35] = target: T35, 4H2691-bN; assay: two-hybrid library CCNG1
T35 chain: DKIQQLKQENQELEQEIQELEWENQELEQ

[36] = target: T36, 4H3632-bN; assay: two-hybrid library CCNG1
T36 chain: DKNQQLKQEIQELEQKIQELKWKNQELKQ

[37] = target: T37, 4H145-bN; assay: two-hybrid library CCNG1; settings: mean of both orientations
T37 chain: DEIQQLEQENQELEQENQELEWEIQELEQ

[38] = target: T38, 4H2619-bN; assay: two-hybrid library CCNG1
T38 chain: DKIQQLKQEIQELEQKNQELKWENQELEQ

[39] = target: T39, 4H496-bN; assay: two-hybrid library CCNG1
T39 chain: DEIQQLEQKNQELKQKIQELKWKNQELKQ

[40] = target: T40, Core_NIIN-es_KEKK; assay: two-hybrid library CCmax; settings: mean of both orientations
T40 chain: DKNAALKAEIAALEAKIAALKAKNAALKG

[41] = target: T41, P12A-bP; assay: two-hybrid library CCNG1
T41 chain: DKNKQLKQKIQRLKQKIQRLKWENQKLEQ

[42] = target: T42, P7A-bP; assay: two-hybrid library CCNG1
T42 chain: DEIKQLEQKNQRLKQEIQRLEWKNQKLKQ

[43] = target: T43, P6A-bP; assay: two-hybrid library CCNG1
T43 chain: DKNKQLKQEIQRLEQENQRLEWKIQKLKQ

[44] = target: T44, P3A-bP; assay: two-hybrid library CCNG1
T44 chain: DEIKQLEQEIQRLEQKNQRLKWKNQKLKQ

[45] = target: T45, P5A-bP; assay: two-hybrid library CCNG1
T45 chain: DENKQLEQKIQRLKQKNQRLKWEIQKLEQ

[46] = target: T46, P1A-bP; assay: two-hybrid library CCNG1
T46 chain: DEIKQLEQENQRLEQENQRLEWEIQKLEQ

[47] = target: T47, P4A-bP; assay: two-hybrid library CCNG1
T47 chain: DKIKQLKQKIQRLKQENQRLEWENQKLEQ

[48] = target: T48, P8A-bP; assay: two-hybrid library CCNG1
T48 chain: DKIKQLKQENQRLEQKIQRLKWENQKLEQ

[49] = target: T49, P11A-bP; assay: two-hybrid library CCNG1
T49 chain: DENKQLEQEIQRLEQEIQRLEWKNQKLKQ

[50] = target: T50, P2A-bP; assay: two-hybrid library CCNG1
T50 chain: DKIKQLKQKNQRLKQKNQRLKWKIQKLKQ

[51] = target: T51, P2-AA-1HAA-Y; assay: two-hybrid library CCmax; settings: mean of both orientations
T51 chain: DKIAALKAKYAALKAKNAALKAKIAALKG

[52] = target: T52, P2-AA-1HAA-R; assay: two-hybrid library CCmax; settings: mean of both orientations
T52 chain: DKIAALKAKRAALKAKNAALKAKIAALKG

[53] = target: T53, P2-AA-1HAA-I; assay: two-hybrid library CCmax; settings: mean of both orientations
T53 chain: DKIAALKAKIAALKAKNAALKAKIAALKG

[54] = target: T54, P2-AA-1HAA-E; assay: two-hybrid library CCmax; settings: mean of both orientations
T54 chain: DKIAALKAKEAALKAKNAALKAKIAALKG

[55] = target: T55, P2-AA-1HAA-T; assay: two-hybrid library CCmax; settings: mean of both orientations
T55 chain: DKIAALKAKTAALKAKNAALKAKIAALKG

[56] = target: T56, P2-AA-1HAA-D; assay: two-hybrid library CCmax; settings: mean of both orientations
T56 chain: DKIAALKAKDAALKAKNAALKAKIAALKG

[57] = target: T57, P2-AA-1HAA-K; assay: two-hybrid library CCmax; settings: mean of both orientations
T57 chain: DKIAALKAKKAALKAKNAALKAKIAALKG

[58] = target: T58, P2-AA-1HAA-V; assay: two-hybrid library CCmax; settings: mean of both orientations
T58 chain: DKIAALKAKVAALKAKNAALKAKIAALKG

[59] = target: T59, P2-AA-1HAA-S; assay: two-hybrid library CCmax; settings: mean of both orientations
T59 chain: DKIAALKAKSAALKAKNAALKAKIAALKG

[60] = target: T60, P2-AA; assay: two-hybrid library CCmax; settings: mean of both orientations
T60 chain: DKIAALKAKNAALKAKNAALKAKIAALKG

[61] = target: T61, P9A-bP; assay: two-hybrid library CCNG1
T61 chain: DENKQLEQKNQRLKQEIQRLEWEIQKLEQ

DENQELEKEIEELERKIWELKKKNQELKR [4H1072-bH]
interaction score [1]: 0.634 | interaction score [2]: 1.17 | interaction score [3]: 0.132 | interaction score [4]: 1.31 | interaction score [5]: -0.817 | interaction score [6]: -1.58 | interaction score [7]: 0.621 | interaction score [8]: 1.52 | interaction score [9]: 0.827 | interaction score [10]: -0.184 | interaction score [11]: 2.09 | interaction score [12]: 0.174 | interaction score [13]: 0.311 | interaction score [14]: 1.84 | interaction score [15]: 1.65 | interaction score [16]: 0.487 | interaction score [17]: 0.426

DKNQQLKQENQELEQKIQELKWKIQELKQ [O10-bN]
interaction score [18]: 0.648 | interaction score [19]: 0.129 | interaction score [20]: -0.783 | interaction score [21]: -0.552 | interaction score [22]: -0.625 | interaction score [23]: 0.523 | interaction score [24]: -1.59 | interaction score [25]: -0.104 | interaction score [26]: 1.38 | interaction score [27]: -0.514 | interaction score [28]: -0.398 | interaction score [29]: -1.87 | interaction score [30]: 0.28 | interaction score [31]: 0.186 | interaction score [32]: 0.569

DEIQQLEQENQELEQENQELEWEIQELEQ [4H145-bN]
interaction score [33]: -2.65 | interaction score [34]: 2.01 | interaction score [35]: -1.25 | interaction score [36]: -1.49 | interaction score [37]: -0.563 | interaction score [38]: -0.87 | interaction score [39]: -0.916

DENAALEAKIAALKAEIAALEAENAALEG [Core_NIIN-es_EKEE]
interaction score [40]: 1.84

DKNKQLKQENQRLEQKIQRLKWKIQKLKQ [P10A-bP]
interaction score [41]: -1.01 | interaction score [42]: -1.19 | interaction score [43]: -0.83 | interaction score [44]: -0.806 | interaction score [45]: -1.01 | interaction score [46]: 0.96 | interaction score [47]: -0.87 | interaction score [48]: -1.35 | interaction score [49]: 1.25 | interaction score [50]: -1.7

DEIAALEAERAALEAENAALEAEIAALEG [P1-AA-1HAA-R]
interaction score [51]: 1.63 | interaction score [52]: 1.34 | interaction score [53]: 1.99 | interaction score [54]: 0.63 | interaction score [55]: 1.95 | interaction score [56]: 0.454 | interaction score [57]: 0.734 | interaction score [58]: 2.29 | interaction score [59]: 1.28 | interaction score [60]: 1.76

DENKQLEQEIQRLEQEIQRLEWKNQKLKQ [P11A-bP]
interaction score [41]: 1.42 | interaction score [42]: -2.06 | interaction score [43]: 0 | interaction score [44]: -2.11 | interaction score [45]: -0.091 | interaction score [46]: -0.431 | interaction score [47]: -0.08 | interaction score [61]: 0.853 | interaction score [48]: 0.201 | interaction score [49]: -0.677 | interaction score [50]: -0.486

DEIAALEAEIAALEAENAALEAEIAALEG [P1-AA-1HAA-I]
interaction score [51]: 2.08 | interaction score [52]: 2.06 | interaction score [53]: 2.11 | interaction score [54]: 1.82 | interaction score [55]: 1.91 | interaction score [58]: 1.69 | interaction score [59]: 2.03 | interaction score [60]: 2.21
